Data: patent US5677146

Legend:
[1] = molecular target: plasma kallikrein (3 nM), Kabi
[2] = molecular target: glandular kallikrein (1 U/ml), Sigma, St Louis, MO
[3] = molecular target: Leukocyte Elastase, purified at Novo Nordisk A/S using the method of Baugh and Travis
[4] = molecular target: Trypsin (8 nM), Novo Nordisk A/S, Bagsvaerd, Denmark
[5] = molecular target: Urokinase (5 nM), Serono, Freigung, Germany
[6] = molecular target: Chymotrypsin (2.5 nM), Novo Nordisk A/S
[7] = molecular target: T1, Cathepsin G, purified at Novo Nordisk A/S using the method of Baugh and Travis
T1 sequence (P08311 21-244, species assumed, looked up): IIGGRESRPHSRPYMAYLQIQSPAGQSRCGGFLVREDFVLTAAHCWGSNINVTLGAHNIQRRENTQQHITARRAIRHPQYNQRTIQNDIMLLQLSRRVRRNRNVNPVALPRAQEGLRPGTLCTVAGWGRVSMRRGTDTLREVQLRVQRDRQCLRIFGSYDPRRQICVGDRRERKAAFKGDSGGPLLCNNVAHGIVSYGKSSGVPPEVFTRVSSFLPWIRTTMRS

% Inhibition [1]: 71% | % Inhibition [2]: 82% | % Inhibition [3]: 6% | % Inhibition [4]: 99.7% | % Inhibition [5]: 0% | % Inhibition (Plasmin (10 nM), Kabi): 90% | % Inhibition [6]: 94% | % Inhibition [7]: 16%
B1: Kunitz-type inhibitor domain of the amyloid protein precursor (protein)
chain: EVCSEQAETGPCRAMISRWYFDVTEGKCAPFFYGGCGGNRNNFDTEEYCMAVCGSA
